Data reported in patent publication US20140363377A1 (UNIVERSITY OF BRITISH COLUMBIA, published 2014).

T1: DR4, endogenous, in human cancer cell lysates (human, UniProt O00220 24-468)
T1 construct: also called TRAIL receptor DR4
T1 sequence (looked up): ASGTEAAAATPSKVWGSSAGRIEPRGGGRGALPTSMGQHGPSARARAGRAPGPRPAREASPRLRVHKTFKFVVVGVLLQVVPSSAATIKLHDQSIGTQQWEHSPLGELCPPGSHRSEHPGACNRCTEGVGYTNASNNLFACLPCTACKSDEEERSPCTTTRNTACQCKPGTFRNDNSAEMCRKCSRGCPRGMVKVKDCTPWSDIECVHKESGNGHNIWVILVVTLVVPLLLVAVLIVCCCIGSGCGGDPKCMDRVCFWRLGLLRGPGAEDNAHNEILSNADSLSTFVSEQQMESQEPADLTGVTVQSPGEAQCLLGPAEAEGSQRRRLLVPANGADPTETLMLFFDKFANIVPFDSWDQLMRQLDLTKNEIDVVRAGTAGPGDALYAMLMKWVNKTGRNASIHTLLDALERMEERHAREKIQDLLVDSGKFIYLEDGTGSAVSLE

B1: SPARC (Secreted Protein, Acidic, Rich in Cysteines), His-tagged, stably expressed in MIP101 cells (MIP/SP) (other, human, UniProt P09486 18-303, looked up)
chain: APQQEALPDETEVVEETVAEVTEVSVGANPVQVEVGEFDDGAEETEEEVVAENPCQNHHCKHGKVCELDENNTPMCVCQDPTSCPAPIGEFEKVCSNDNKTFDSSCHFFATKCTLEGTKKGHKLHLDYIGPCKYIPPCLDSELTEFPLRMRDWLKNVLVTLYERDEDNNLLTEKQKLRVKKIHENEKRLEAGDHPVELLARDFEKNYNMYIFPVHWQFGQLDQHPIDGYLSHTELAPLRAPLIPMEHCTTRFFETCDLDNDKYIALDEWAGCFGIKQKDIDKDLVI
notes: Present in membrane fractions of MIP/SP cell lysates used for co-immunoprecipitation; also called osteonectin; His-tagged SPARC protein; not shown: His tag

Key:
[1] = target: B1; assay: co-immunoprecipitation from subcellular fractions
Experimental: (§1) Cells were separated into nuclear, cytosolic, and membrane fractions using ProteoExtract Subcellular Proteome Extraction Kit (EMD Biosciences Inc.). […] Protein:Antibody mixture was then incubated with 30 μL of Protein A: Protein G (Sigma) (1:1) beads for 4 hours (4° C.).

[2] = target: T1, DR4, endogenous, in human cancer cell …; assay: co-immunoprecipitation from subcellular fractions
Experimental: as §1

Binder	binding result [1]	binding result [2]
FADD, endogenous, in human cancer cell lysates (other, UniProt Q13158 1-208, looked up, also called Fas-associated death domain; p-FADD) MDPFLVLLHSVSSSLSSSELTELKFLCLGRVGKRKLERVQSGLDLFSMLLEQNDLEPGHTELLRELLASLRRHDLLRRVDDFEAGAAAGAAPGEEDLCAAFNVICDNVGKDWRRLARQLKVSDTKIDSIEDRYPRNLTERVRESLRIWKNTEKENATVAHLVGALRSCQMNLVADLVQEVQQARDLQNRSGAMSPMSWNSDASTSEAS	no binding	–
B1	–	no binding
